Results published in publication PMC10878513, “SRPK2 Mediates HBV Core Protein Phosphorylation and Capsid Assembly via Docking Interaction” (PLOS Pathogens, 2024).
Where a chain is given by its changes, count along the chain named. Names may count otherwise.

What was measured:
[1] = target: the molecule itself; test: SEC; without ATP; proteins in disassembly buffer (1.5 M GuHCl), GuHCl removed by dialysis against reassembly buffer; analytical Superdex 200 10/300 GL; peak fractions by SDS-PAGE
[2] = target: the molecule itself; test: SEC; SRPK2ΔS1/CpWT complex supplemented with 5 mM MgCl2 and 0.1 mM ATP; analytical Superdex 200 10/300 GL; void-volume peak also imaged by negative-stain EM
[3] = target: T1, His-tagged SRPK1WT (UniProt Q96SB4 1-655); test: MST; 200 nM N-terminally His-tagged SRPK1/2 labelled with RED-tris-NTA as target; GST-CpY132A as ligand in 2-fold serial dilution from 20 μM to 0.61 nM; room temperature; Monolith NT.115, MST power 40%; details: both partners purified
T1 construct: serine-arginine protein kinase 1 (SRPK1), wild type; Labelled on the His tag with RED-tris-NTA for MST; also called wild-type SRPK1; source: recombinant, purified; not shown: His tag, N-terminal, kept

[4] = target: T2, His-tagged SRPK2WT (full-length SRPK2) (UniProt P78362 1-688); test: as above; details: both partners purified
T2 construct: serine-arginine protein kinase 2 (SRPK2), full length, wild type; Cloned in pET-15b; Labelled on the His tag with RED-tris-NTA for MST; also called His-SRPK2WT; wild-type SRPK2; source: E. coli BL21(DE3)pLysS, purified (Ni-NTA, SEC); not shown: His tag, N-terminal, kept
T2 sequence (P78362 whole entry): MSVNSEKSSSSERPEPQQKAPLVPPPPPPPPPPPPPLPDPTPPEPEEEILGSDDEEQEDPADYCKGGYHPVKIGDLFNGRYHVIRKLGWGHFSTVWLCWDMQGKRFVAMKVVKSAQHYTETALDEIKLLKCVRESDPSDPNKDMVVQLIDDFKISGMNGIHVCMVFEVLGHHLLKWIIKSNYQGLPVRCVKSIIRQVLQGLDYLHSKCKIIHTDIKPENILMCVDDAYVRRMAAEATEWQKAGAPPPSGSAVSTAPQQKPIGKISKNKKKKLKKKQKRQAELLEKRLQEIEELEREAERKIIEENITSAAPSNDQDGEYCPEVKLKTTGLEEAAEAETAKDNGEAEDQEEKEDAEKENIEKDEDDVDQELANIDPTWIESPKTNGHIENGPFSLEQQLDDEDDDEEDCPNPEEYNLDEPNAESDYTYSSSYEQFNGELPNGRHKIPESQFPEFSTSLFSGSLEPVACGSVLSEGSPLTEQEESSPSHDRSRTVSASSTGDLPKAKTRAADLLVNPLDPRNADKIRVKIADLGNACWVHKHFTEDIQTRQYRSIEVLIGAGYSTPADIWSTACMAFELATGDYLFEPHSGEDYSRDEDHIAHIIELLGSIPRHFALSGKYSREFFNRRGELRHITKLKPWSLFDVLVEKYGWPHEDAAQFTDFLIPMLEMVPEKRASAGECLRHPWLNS

T1 sequence (Q96SB4 whole entry): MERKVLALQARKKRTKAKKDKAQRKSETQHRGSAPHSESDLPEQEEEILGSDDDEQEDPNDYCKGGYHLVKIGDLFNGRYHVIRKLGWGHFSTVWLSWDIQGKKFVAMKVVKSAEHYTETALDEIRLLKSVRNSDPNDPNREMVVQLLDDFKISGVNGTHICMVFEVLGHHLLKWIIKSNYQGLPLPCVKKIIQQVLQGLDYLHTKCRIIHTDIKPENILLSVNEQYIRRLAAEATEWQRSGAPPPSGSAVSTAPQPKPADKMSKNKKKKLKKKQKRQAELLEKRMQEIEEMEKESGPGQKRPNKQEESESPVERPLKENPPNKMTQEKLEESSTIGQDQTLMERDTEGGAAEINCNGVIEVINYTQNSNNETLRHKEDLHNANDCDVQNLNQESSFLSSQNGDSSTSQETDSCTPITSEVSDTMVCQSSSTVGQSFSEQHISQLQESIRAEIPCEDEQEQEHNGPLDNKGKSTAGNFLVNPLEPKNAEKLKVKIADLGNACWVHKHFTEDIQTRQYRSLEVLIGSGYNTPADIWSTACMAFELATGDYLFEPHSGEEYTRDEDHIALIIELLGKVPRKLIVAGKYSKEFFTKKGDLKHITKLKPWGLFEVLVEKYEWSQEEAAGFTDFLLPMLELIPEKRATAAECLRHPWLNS

B1: His-tagged CpWT (wild-type hepatitis B core protein) (natural protein)
chain: MDIDPYKEFGATVELLSFLPSDFFPSVRDLLDTASALYREALESPEHCSPHHTALRQAILCWGELMTLATWVGNNLEDPASRDLVVNYVNTNVGLKIRQLLWFHISCLTFGRETVLEYLVSFGVWIRTPPAYRPPNAPILSTLPETTVVRRRDRGRSPRRRTPSPRRRRSPSPRRRRSQSRESQC
notes: Hepatitis B virus core protein (Cp), subtype adw2, full length, wild type; Kept as a dimer in GuHCl; assembles into capsids (about 35 nm, typical of T = 4) when GuHCl or urea is dialysed away; The His tag is seen as extra density at the 3-fold vertices of the capsid maps; Cloned in pET-15b; also called His-CpWT; CpWT dimer; not shown: His tag, N-terminal, kept
[1]
  binding result: binds

B2: CpWT phosphorylated by SRPK2ΔS1 (after addition of ATP/Mg2+) (natural protein)
chain: B1 chain
modifications: phosphorylated by SRPK2ΔS1 with ATP/Mg2+; sites and extent not stated for this sample
notes: Hepatitis B virus core protein (Cp), subtype adw2, full length, wild type; also called phosphorylated Cp; capsid formed after the addition of ATP/Mg2+; source: E. coli BL21(DE3)pLysS, purified; SRPK2ΔS1/CpWT complex supplemented with 5 mM MgCl2 and 0.1 mM ATP
[2]
  binding result: binds

B3: GST-tagged CpY132A (hepatitis B core protein with the mutation Y132A) (natural protein)
chain: B1 chain with Y132A
notes: Hepatitis B virus core protein (Cp), subtype adw2, full length (assembly domain 1-149, ARD 150-185); Cloned in pGEX-4T-2; also called GST–CpY132A; GST-CpY132A; source: E. coli BL21(DE3)pLysS, purified (glutathione resin); not shown: GST, N-terminal, kept
[3]
  Kd: 83.6 nM
[4]
  Kd: 101 nM
